Measured values published in patent US20240247055A1.

Molecular target: low-density lipoprotein (LDL) receptor-related protein 1 (LRP1) (human) (UniProt Q07954)
Assay: cell-based or functional assay

Sequence of UniProt Q07954 (Q07954 20-4544): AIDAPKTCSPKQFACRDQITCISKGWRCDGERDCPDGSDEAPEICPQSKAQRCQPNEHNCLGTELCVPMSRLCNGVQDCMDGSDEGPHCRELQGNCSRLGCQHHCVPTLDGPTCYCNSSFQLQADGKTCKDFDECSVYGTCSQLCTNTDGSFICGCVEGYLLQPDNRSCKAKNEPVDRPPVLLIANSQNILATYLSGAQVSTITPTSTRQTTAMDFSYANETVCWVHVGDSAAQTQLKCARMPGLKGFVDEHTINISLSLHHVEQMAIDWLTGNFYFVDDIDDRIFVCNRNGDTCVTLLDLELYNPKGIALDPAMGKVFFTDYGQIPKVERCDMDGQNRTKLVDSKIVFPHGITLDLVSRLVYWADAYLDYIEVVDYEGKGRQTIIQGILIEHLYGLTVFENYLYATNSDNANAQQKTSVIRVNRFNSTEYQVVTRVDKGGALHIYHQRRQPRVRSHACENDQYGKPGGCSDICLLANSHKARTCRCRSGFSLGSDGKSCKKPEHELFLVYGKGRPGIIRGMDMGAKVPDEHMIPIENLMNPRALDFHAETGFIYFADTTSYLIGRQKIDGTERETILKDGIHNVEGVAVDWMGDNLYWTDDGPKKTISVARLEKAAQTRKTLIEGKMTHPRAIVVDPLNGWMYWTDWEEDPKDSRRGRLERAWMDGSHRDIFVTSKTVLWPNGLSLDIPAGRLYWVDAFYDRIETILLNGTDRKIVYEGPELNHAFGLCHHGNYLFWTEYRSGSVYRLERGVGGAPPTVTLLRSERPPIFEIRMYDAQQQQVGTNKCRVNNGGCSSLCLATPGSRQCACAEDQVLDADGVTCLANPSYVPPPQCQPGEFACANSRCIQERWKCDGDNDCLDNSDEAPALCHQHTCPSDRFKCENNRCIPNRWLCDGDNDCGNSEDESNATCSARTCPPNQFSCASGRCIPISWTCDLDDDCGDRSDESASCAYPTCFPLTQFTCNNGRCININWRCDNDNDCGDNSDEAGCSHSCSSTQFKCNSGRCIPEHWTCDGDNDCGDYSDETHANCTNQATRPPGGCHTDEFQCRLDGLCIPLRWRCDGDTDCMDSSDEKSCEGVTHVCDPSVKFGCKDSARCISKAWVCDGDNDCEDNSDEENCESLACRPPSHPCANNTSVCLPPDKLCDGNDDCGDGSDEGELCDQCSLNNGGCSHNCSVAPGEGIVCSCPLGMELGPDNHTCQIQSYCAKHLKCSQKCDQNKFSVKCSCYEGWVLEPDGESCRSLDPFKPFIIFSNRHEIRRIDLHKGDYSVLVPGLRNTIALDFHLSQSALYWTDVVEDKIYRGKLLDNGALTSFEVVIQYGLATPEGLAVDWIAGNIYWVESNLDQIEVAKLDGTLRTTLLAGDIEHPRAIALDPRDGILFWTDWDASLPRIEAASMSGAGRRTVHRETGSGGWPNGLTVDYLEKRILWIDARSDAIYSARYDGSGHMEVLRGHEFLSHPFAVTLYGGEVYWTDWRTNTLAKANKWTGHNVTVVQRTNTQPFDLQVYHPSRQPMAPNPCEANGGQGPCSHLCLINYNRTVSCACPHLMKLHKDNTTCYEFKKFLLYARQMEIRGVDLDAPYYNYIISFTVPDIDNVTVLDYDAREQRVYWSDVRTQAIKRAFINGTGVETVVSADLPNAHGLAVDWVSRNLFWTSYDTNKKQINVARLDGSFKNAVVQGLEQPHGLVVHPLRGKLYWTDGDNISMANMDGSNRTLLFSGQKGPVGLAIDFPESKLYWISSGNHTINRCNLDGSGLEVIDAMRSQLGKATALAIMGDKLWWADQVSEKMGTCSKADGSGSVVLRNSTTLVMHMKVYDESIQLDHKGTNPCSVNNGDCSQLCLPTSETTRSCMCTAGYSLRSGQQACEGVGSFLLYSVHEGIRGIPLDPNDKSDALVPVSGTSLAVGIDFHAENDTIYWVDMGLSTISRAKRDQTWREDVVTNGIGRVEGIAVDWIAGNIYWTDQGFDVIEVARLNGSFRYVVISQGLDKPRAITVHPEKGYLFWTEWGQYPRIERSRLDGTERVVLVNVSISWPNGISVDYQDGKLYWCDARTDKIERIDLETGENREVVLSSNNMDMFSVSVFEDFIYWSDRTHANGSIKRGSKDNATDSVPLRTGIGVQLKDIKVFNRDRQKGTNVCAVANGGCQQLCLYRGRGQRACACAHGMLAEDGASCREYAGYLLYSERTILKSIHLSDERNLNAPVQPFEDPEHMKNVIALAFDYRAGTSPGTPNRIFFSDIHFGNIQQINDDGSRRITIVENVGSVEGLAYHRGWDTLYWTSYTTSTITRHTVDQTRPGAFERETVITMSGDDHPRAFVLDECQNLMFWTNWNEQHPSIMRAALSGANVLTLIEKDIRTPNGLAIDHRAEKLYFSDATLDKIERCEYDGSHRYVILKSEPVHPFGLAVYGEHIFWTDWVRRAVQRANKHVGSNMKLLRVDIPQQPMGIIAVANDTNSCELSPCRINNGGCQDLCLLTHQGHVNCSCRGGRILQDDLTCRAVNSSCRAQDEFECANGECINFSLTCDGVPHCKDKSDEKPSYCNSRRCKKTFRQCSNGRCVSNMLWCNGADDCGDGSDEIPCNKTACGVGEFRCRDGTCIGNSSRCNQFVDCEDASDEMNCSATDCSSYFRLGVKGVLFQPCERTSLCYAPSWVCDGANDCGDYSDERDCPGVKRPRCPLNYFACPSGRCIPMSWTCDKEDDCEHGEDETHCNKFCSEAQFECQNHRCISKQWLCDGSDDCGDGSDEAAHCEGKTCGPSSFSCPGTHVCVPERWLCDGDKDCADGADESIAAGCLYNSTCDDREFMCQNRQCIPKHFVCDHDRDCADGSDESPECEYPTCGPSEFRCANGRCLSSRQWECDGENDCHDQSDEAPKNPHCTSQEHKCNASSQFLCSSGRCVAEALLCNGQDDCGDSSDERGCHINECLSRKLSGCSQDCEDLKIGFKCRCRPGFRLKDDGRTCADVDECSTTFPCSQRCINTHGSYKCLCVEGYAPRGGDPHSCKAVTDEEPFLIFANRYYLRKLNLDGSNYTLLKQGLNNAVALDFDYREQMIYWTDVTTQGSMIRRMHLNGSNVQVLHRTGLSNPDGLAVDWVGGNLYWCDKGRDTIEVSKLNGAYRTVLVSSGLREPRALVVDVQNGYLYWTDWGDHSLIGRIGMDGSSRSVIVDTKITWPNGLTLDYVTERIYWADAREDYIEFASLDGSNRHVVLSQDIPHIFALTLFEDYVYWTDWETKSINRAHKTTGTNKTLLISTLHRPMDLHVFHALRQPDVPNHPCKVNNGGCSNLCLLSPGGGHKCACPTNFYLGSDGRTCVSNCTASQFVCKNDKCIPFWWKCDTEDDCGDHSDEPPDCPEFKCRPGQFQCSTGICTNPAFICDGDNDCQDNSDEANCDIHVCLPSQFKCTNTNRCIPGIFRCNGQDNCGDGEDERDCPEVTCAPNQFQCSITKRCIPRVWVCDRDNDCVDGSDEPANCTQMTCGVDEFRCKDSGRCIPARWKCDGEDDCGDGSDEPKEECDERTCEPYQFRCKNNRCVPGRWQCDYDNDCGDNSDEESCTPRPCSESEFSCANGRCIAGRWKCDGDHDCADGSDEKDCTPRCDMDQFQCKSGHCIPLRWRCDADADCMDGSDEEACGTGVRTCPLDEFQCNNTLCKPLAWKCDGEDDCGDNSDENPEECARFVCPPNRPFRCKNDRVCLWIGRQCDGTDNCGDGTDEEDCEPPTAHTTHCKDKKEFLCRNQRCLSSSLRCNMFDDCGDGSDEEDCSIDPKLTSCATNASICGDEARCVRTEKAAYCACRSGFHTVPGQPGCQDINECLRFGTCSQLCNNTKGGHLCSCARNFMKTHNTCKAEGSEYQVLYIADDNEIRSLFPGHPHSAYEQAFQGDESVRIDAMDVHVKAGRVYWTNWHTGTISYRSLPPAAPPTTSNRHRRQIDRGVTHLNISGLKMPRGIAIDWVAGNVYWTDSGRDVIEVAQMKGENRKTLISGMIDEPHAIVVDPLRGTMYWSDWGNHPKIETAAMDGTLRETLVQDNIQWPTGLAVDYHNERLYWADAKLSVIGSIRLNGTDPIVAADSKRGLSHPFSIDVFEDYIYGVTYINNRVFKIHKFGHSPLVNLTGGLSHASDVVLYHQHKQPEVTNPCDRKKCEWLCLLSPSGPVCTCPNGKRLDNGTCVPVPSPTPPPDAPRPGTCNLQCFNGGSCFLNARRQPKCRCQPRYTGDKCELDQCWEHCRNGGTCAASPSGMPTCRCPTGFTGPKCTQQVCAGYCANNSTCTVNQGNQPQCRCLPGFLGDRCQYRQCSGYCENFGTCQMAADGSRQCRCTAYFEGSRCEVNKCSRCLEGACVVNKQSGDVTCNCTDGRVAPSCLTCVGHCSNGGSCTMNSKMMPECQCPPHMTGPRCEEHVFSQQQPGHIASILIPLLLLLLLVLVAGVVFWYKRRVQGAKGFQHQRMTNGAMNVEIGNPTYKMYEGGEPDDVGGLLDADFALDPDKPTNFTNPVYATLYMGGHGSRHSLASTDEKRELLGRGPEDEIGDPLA

inhibition of uptake of K18 tau in WT H4 cells (IC50): 9.6 nM
inhibition of uptake of full-length tau in WT H4 cells (IC50): 4.9 nM
Substance: receptor-associated protein (RAP) (from UniProt P30533 35-357) (ligand)
